Reference: patent EP4772536A1 (Teijin Pharma Limited, dated 2026)

T1: recombinant human soluble gpNMB (human gpNMB-FLAG-His) (human, UniProt Q14956 23-498)
T1 construct: FLAG and His tags; also called recombinant human gpNMB-FLAG-His
T1 sequence: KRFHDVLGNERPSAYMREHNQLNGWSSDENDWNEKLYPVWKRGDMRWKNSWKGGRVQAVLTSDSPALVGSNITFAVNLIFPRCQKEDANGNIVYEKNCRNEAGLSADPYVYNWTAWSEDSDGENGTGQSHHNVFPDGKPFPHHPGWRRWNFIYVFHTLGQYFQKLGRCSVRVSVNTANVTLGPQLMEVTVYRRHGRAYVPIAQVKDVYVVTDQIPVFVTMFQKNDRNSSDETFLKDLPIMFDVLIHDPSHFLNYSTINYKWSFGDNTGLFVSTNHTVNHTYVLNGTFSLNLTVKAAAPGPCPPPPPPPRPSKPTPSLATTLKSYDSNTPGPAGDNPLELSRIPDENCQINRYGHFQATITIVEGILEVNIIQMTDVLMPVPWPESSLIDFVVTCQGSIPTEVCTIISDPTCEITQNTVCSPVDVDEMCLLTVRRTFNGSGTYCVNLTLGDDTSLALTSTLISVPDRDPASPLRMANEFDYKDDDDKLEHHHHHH

T2: recombinant mouse soluble gpNMB (mouse gpNMB-FLAG-His) (mouse, UniProt Q99P91 23-502)
T2 construct: FLAG and His tags; also called recombinant mouse gpNMB-FLAG-His
T2 sequence: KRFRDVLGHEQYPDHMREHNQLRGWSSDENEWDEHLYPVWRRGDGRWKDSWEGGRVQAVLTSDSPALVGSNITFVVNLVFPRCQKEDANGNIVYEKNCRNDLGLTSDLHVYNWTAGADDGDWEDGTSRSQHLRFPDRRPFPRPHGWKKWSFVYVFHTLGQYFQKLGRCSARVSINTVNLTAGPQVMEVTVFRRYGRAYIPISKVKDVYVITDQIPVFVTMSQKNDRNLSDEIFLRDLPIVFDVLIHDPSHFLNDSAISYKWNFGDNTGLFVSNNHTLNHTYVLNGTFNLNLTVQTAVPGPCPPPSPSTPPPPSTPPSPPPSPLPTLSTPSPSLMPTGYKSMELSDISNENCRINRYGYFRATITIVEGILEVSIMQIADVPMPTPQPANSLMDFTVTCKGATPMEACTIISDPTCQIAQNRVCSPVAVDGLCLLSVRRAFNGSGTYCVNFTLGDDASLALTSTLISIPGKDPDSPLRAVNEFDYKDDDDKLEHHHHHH


Key:
[1] = target: T1, recombinant human soluble gpNMB (human …); experiment: SPR single-cycle kinetics, gpNMB-FLAG-His captured, 1:1 model
[2] = target: T2, recombinant mouse soluble gpNMB (mouse …); experiment: as above

Kd [1] [nM] | koff [1] [s⁻¹] | kon [1] [M⁻¹ s⁻¹] | Kd [2] [nM] | koff [2] [s⁻¹] | kon [2] [M⁻¹ s⁻¹] | Binder
0.488 | 0.000253 | 519000 | 5.05 | 0.000879 | 174000 | GPN06-1 (antibody, V domains shown, anti-gpNMB monoclonal antibody) VH: QVQLQQPGAEIVRPGASVKLSCKASGYTFTDNWMGWVKQRPGQGLEWIGAIDPSDSFTNYNQNFKGKATLTVDTSSSTAYMQLSSLTSEDSAVYFCTRSGYYGSPKLGGDYWGQGTTLTVSS VL: QIVLTQSPAIMSASLGEEITLTCSASSSISYMHWYQQKSGTSPKLLIYSTSNLASGVPSRFSGSGSGTFYSLTISSVEAEDAADYYCHQWNSYPCTFGGGTKLEIK
0.366 | 3.55e-05 | 96900 | 8.5 | 0.000307 | 36100 | GPN05-1 (antibody, V domains shown, anti-gpNMB monoclonal antibody) VH: QVQLQQSGAELVRPGTSVKVSCKASGYAFSNHLIEWVKQRPGQGLEWIGVINPGSGGTNYIEKFKGKATLTADKSSSTAYMQLSSLTSDDSAVYFCARGANWDVGFAYWGQGTLVTVSA VL: EIQMTQSPSSMSASLGDRITITCQATQDIVKNLNWYQQKPGKPPSFLIYYATELAEGVPSRFSGSGSGSDFSLTISNLESEDFADYYCLQFHEFPRTFGGGTKLEIK
